According to PMC3414502:

Molecular target: CPM-PH-PLCß2 (N-terminal PH domain of PLCβ2)
Assay: other fluorescence titration; unlabelled γ-synuclein added in steps to CPM-labelled protein in solution (2 nM CPM-PLCβ2, also 0.5 nM); increase of CPM intensity; 20 mM Hepes pH 7.2, 160 mM NaCl, 1 mM DTT

Chain of Human γ-synuclein (O76070 whole entry): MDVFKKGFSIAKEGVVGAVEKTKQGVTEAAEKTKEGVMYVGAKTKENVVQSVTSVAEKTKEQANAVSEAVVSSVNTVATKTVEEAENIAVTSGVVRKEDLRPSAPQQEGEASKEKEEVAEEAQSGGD
Chain of CPM-PH-PLCß2 (N-terminal PH domain of PLCβ2) (Q00722 whole entry, the tested form may be a part): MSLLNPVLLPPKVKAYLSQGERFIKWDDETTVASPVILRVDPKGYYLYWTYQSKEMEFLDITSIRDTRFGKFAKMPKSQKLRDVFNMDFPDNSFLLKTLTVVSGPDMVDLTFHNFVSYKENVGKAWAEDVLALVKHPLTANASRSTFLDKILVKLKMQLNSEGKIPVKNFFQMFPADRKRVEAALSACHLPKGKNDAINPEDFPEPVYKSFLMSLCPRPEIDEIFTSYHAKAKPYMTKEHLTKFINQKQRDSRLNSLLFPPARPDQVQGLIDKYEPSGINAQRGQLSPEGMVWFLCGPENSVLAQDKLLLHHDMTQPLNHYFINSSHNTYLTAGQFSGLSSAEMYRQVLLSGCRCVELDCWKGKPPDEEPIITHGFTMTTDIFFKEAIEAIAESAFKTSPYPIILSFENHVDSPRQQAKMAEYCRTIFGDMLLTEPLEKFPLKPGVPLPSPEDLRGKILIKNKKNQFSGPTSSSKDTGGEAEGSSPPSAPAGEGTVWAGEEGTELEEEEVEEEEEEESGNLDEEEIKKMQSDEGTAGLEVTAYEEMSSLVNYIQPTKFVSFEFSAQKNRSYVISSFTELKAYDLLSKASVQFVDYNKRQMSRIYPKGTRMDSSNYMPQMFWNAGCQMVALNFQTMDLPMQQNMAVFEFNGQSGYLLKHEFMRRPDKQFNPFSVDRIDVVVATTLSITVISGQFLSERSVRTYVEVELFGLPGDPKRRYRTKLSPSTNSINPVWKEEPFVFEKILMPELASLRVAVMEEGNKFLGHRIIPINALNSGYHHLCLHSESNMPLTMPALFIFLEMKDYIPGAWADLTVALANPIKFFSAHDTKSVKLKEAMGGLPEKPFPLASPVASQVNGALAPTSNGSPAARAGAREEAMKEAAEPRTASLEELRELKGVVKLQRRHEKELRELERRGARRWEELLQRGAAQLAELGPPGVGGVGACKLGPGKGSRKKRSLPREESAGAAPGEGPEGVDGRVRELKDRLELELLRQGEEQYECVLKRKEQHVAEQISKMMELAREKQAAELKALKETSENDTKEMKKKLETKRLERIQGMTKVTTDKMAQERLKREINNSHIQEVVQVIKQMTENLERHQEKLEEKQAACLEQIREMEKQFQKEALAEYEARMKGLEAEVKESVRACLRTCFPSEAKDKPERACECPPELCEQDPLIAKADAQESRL

Human γ-synuclein (from UniProt O76070 1-127) (natural protein)
fold weaker affinity than for full length CPM-PLCβ2: > 50 fold
